Test results: paper doi:10.1101/2021.02.18.431813 (bioRxiv, 2021)

What was measured:
Assay in all cases: PIE-FCCS
[1] = target: T1, Plexin A4ΔSema (human, UniProt Q9HCM2 24-1894, deletes residues 39-506)
T1 sequence (looked up): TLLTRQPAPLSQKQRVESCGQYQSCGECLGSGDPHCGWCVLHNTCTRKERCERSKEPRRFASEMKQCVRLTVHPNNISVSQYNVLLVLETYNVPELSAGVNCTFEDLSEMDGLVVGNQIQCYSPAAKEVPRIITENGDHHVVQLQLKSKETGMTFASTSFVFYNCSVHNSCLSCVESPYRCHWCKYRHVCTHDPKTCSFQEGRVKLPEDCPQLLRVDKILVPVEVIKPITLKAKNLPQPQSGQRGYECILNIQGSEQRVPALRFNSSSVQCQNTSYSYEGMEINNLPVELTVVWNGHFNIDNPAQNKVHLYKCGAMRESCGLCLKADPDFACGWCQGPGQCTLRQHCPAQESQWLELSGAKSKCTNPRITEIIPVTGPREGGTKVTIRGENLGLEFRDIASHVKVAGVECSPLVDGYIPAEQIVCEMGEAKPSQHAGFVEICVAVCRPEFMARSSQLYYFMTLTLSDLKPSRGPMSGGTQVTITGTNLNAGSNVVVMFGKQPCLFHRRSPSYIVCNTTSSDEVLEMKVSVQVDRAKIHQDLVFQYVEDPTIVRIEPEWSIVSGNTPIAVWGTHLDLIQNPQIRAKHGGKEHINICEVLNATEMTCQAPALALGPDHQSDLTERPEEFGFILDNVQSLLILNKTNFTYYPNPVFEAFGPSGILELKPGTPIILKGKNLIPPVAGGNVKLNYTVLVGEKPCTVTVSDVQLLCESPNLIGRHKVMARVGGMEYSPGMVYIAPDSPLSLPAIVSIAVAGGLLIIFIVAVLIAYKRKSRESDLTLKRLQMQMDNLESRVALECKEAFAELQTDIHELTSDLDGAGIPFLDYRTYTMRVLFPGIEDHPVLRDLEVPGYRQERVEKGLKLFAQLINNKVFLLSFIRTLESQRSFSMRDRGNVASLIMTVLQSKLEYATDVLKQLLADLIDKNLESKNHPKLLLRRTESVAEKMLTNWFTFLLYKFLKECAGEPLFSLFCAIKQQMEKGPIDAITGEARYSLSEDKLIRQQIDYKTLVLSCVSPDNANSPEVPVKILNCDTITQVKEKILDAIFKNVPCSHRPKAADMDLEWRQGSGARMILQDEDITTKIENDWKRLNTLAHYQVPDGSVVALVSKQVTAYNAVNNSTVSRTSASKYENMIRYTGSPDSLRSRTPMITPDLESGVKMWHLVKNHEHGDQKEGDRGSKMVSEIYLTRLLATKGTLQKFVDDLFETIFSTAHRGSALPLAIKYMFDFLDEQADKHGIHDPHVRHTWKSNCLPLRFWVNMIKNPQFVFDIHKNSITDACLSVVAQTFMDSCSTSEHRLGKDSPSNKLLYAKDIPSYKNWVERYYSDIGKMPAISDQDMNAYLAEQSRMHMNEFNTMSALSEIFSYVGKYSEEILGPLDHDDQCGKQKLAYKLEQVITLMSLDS

[2] = target: the molecule itself
[3] = target: Plexin A4 (human, UniProt Q9HCM2 24-1894)

B1: Plexin A2 (receptor, human, UniProt O75051 35-1894, looked up)
chain: MPQFSTFHSENRDWTFNHLTVHQGTGAVYVGAINRVYKLTGNLTIQVAHKTGPEEDNKSCYPPLIVQPCSEVLTLTNNVNKLLIIDYSENRLLACGSLYQGVCKLLRLDDLFILVEPSHKKEHYLSSVNKTGTMYGVIVRSEGEDGKLFIGTAVDGKQDYFPTLSSRKLPRDPESSAMLDYELHSDFVSSLIKIPSDTLALVSHFDIFYIYGFASGGFVYFLTVQPETPEGVAINSAGDLFYTSRIVRLCKDDPKFHSYVSLPFGCTRAGVEYRLLQAAYLAKPGDSLAQAFNITSQDDVLFAIFSKGQKQYHHPPDDSALCAFPIRAINLQIKERLQSCYQGEGNLELNWLLGKDVQCTKAPVPIDDNFCGLDINQPLGGSTPVEGLTLYTTSRDRMTSVASYVYNGYSVVFVGTKSGKLKKIRADGPPHGGVQYEMVSVLKDGSPILRDMAFSIDQRYLYVMSERQVTRVPVESCEQYTTCGECLSSGDPHCGWCALHNMCSRRDKCQQAWEPNRFAASISQCVSLAVHPSSISVSEHSRLLSLVVSDAPDLSAGIACAFGNLTEVEGQVSGSQVICISPGPKDVPVIPLDQDWFGLELQLRSKETGKIFVSTEFKFYNCSAHQLCLSCVNSAFRCHWCKYRNLCTHDPTTCSFQEGRINISEDCPQLVPTEEILIPVGEVKPITLKARNLPQPQSGQRGYECVLNIQGAIHRVPALRFNSSSVQCQNSSYQYDGMDISNLAVDFAVVWNGNFIIDNPQDLKVHLYKCAAQRESCGLCLKADRKFECGWCSGERRCTLHQHCTSPSSPWLDWSSHNVKCSNPQITEILTVSGPPEGGTRVTIHGVNLGLDFSEIAHHVQVAGVPCTPLPGEYIIAEQIVCEMGHALVGTTSGPVRLCIGECKPEFMTKSHQQYTFVNPSVLSLNPIRGPESGGTMVTITGHYLGAGSSVAVYLGNQTCEFYGRSMSEIVCVSPPSSNGLGPVPVSVSVDRAHVDSNLQFEYIDDPRVQRIEPEWSIASGHTPLTITGFNLDVIQEPRIRVKFNGKESVNVCKVVNTTTLTCLAPSLTTDYRPGLDTVERPDEFGFVFNNVQSLLIYNDTKFIYYPNPTFELLSPTGVLDQKPGSPIILKGKNLCPPASGGAKLNYTVLIGETPCAVTVSETQLLCEPPNLTGQHKVMVHVGGMVFSPGSVSVISDSLLTLPAIVSIAAGGSLLLIIVIIVLIAYKRKSRENDLTLKRLQMQMDNLESRVALECKEAFAELQTDINELTSDLDRSGIPYLDYRTYAMRVLFPGIEDHPVLRELEVQGNGQQHVEKALKLFAQLINNKVFLLTFIRTLELQRSFSMRDRGNVASLIMTGLQGRLEYATDVLKQLLSDLIDKNLENKNHPKLLLRRTESVAEKMLTNWFAFLLHKFLKECAGEPLFMLYCAIKQQMEKGPIDAITGEARYSLSEDKLIRQQIEYKTLILNCVNPDNENSPEIPVKVLNCDTITQVKEKILDAVYKNVPYSQRPRAVDMDLEWRQGRIARVVLQDEDITTKIEGDWKRLNTLMHYQVSDRSVVALVPKQTSSYNIPASASISRTSISRYDSSFRYTGSPDSLRSRAPMITPDLESGVKVWHLVKNHDHGDQKEGDRGSKMVSEIYLTRLLATKGTLQKFVDDLFETLFSTVHRGSALPLAIKYMFDFLDEQADRHSIHDTDVRHTWKSNCLPLRFWVNVIKNPQFVFDIHKGSITDACLSVVAQTFMDSCSTSEHRLGKDSPSNKLLYAKDIPSYKSWVERYYADIAKLPAISDQDMNAYLAEQSRLHAVEFNMLSALNEIYSYVSKYSEELIGALEQDEQARRQRLAYKVEQLINAMSIES
[1]
  median fraction correlated (fc): 0.23
[2]
  median fraction correlated (fc): 0.09
  stoichiometry N: 2
[3]
  median fraction correlated (fc): 0.08
